According to IntAct's records for PubMed 36931259:

B1: 14-3-3 protein sigma (Homo sapiens), P31947 (parent)
chain: MERASLIQKAKLAEQAERYEDMAAFMKGAVEKGEELSCEERNLLSVAYKNVVGGQRAAWRVLSSIEQKSNEEGSEEKGPEVREYREKVETELQGVCDTVLGLLDSHLIKEAGDAESRVFYLKMKGDYYRYLAEVATGDDKKRIIDSARSAYQEAMDISKKEMPPTNPIRLGLALNFSVFHYEIANSPEEAISLAKTTFDEAMADLHTLSEDSYKDSTLIMQLLRDNLTLWTADNAGEEGGEAPQEPQS
partner: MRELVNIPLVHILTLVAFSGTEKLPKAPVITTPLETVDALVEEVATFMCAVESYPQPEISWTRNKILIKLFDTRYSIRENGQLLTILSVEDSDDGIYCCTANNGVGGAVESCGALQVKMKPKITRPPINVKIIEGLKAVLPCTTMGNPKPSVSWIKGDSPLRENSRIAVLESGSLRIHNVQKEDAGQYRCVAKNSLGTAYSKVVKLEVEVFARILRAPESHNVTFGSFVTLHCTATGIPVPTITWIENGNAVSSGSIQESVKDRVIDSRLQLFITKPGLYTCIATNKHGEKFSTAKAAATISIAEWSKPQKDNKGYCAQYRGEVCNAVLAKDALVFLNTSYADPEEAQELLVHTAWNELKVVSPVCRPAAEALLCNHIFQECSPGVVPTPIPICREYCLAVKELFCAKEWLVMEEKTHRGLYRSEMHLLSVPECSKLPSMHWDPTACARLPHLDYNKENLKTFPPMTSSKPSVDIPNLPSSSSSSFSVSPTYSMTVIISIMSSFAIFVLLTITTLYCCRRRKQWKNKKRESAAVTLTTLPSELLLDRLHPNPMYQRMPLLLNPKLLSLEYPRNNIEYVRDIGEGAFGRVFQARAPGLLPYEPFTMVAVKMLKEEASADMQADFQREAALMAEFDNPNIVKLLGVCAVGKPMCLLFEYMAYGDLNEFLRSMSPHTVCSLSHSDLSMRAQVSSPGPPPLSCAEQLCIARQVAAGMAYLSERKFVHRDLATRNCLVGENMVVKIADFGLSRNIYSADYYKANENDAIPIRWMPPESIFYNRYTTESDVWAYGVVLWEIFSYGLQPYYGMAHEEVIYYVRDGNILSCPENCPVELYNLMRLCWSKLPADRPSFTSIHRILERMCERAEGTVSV
B2: 14-3-3 protein sigma (Homo sapiens), P31947 (parent)
chain: B1 chain
partner: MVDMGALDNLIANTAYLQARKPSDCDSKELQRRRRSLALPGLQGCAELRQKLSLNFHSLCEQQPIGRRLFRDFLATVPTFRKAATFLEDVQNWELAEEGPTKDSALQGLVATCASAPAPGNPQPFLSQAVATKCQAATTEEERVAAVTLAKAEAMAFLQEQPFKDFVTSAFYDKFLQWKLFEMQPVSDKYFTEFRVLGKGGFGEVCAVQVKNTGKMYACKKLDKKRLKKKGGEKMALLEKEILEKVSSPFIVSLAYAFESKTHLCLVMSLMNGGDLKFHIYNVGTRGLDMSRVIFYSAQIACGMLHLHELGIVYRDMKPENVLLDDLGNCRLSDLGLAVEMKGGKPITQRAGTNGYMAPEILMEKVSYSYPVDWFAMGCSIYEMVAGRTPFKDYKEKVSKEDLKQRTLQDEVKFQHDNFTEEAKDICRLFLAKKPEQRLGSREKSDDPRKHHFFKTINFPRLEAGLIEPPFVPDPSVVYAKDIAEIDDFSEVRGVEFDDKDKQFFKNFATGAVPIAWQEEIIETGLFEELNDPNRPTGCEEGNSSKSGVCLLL
B3: 14-3-3 protein sigma (Homo sapiens), P31947 (parent)
chain: B1 chain
partner: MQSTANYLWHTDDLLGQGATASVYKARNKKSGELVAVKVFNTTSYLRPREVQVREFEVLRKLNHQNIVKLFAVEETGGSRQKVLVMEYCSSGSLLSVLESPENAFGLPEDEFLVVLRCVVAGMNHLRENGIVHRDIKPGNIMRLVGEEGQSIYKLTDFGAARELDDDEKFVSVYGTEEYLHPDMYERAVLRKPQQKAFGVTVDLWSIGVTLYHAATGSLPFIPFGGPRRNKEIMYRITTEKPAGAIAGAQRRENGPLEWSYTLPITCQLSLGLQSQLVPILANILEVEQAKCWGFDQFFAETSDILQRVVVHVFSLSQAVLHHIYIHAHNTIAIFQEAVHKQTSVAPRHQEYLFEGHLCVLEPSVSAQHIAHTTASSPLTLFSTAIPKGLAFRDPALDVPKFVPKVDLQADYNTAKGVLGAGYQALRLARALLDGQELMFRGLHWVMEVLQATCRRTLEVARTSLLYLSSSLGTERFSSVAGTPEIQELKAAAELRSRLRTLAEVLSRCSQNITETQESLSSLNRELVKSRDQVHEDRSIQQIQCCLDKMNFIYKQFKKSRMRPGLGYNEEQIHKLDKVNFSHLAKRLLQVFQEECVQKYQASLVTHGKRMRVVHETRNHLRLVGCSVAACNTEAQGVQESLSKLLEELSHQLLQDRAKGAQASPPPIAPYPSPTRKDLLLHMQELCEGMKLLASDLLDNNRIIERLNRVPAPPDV
B4: 14-3-3 protein sigma (Homo sapiens), P31947 (parent)
chain: B1 chain
partner: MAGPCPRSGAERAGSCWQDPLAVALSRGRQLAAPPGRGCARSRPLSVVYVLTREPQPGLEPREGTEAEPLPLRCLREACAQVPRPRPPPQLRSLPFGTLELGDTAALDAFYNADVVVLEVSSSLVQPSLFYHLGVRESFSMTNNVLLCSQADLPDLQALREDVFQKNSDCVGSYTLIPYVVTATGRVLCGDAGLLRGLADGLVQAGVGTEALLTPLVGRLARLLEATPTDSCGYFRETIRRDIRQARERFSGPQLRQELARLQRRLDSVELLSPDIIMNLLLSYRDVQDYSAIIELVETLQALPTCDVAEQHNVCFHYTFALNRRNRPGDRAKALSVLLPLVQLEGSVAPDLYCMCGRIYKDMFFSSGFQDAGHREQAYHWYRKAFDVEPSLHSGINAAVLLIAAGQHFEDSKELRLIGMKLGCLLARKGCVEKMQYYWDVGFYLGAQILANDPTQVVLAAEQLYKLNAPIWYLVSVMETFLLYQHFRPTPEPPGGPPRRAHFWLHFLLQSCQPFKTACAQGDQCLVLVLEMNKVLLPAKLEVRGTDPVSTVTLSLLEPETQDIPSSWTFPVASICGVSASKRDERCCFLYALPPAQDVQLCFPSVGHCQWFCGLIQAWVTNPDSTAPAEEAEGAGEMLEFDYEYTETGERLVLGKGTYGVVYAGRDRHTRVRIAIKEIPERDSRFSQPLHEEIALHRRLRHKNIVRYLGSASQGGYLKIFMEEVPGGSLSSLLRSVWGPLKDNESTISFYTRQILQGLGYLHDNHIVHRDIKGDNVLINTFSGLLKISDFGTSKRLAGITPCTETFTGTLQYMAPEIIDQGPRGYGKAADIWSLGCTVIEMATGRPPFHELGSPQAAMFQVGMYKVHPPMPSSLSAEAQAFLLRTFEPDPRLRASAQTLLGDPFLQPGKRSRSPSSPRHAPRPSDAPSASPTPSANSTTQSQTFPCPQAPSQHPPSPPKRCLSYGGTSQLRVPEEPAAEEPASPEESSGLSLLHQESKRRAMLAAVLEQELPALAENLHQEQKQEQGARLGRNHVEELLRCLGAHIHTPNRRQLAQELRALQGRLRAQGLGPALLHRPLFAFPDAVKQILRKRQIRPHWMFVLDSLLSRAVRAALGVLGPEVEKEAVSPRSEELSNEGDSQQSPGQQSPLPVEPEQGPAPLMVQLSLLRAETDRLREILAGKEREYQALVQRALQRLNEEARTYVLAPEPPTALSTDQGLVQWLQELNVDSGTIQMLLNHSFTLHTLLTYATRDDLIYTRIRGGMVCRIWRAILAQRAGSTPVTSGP
B5: 14-3-3 protein sigma (Homo sapiens), P31947 (parent)
chain: B1 chain
partner: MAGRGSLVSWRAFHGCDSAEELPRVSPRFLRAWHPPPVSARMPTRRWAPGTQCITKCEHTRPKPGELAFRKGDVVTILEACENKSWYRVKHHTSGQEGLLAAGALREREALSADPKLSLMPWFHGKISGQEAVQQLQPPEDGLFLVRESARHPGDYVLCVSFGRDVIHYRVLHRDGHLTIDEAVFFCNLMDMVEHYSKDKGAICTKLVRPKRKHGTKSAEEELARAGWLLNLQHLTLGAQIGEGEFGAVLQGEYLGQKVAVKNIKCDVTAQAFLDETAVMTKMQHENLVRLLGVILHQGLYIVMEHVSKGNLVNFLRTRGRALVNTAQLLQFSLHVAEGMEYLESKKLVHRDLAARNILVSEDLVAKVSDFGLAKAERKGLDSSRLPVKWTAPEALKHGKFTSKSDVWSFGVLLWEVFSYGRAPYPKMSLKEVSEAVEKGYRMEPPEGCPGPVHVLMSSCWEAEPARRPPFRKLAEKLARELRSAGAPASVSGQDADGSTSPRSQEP

Variants of: B1
Settings: with musk_human MUSK

Question: With K49E;R56E;V178D as the variant, how does the “effect of a mutation on the interaction” value read?
Answer: Its value is “decreasing interaction strength”.

Variants of: B2
Settings: with grk7_human GRK7, Q8WTQ7

Question: With K49E;R56E;V178D as the variant, how does the “effect of a mutation on the interaction” value read?
Answer: Its value is “decreasing interaction strength”.

Variants of: B3
Settings: with ikke_human IKBKE

Question: For K49E;R56E;V178D, which “effect of a mutation on the interaction” value is on record?
Answer: Its value is “decreasing interaction strength”.

Variants of: B4
Settings: with m3k6_human MAP3K6, O95382

Question: How did the “effect of a mutation on the interaction” value turn out when K49E;R56E;V178D was run?
Answer: Its value is “decreasing interaction strength”.

Variants of: B5
Settings: with matk_human MATK

Question: How did the “effect of a mutation on the interaction” value turn out when K49E;R56E;V178D was run?
Answer: Its value is “decreasing interaction strength”.
